Assay results from PMC3173232 (The Journal of Biological Chemistry, 2011).

How the values were obtained:
full-length XLF (XLF^FL) = full-length XLF (XLF^FL) (human, UniProt Q9H9Q4 1-299); experiment: SEC
crystal structure = molecular target: the molecule itself; experiment: crystal structure

B1: XRCC4(1–140) (domain or fragment)
chain: MERKISRIHLVSEPSITHFLQVSWEKTLESGFVITLTDGHSAWTGTVSESEISQEADDMAMEKGKYVGELRKALLSGAGPADVYTFNFSKESCYFFFEKNLKDVSFRLGSFNLEKVENPAEVIRELICYCLDTIAENQAK
binding result (full-length XLF (XLF^FL)): binds

B2: XLF(1–224) (domain or fragment)
chain: MEELEQGLLMQPWAWLQLAENSLLAKVFITKQGYALLVSDLQQVWHEQVDTSVVSQRAKELNKRLTAPPAAFLCHLDNLLRPLLKDAAHPSEATFSCDCVADALILRVRSELSGLPFYWNFHCMLASPSLVSQHLIRPLMGMSLALQCQVRELATLLHMKDLEIQDYQESGATLIRDRLKTEPFEENSFLEQFMIEKLPEACSIGDGKPFVMNLQDLYMAVTTQ
binding result (crystal structure): binds
